The text below walks through data of article PMC9424529, “Small molecule mediated inhibition of protein cargo recognition by peroxisomal transport receptor PEX5 is toxic to Trypanosoma” (Scientific Reports, 2022).

The target of experiment [1] is T1, TPR domain of T. cruzi PEX5 (347–668) (T. cruzi, UniProt Q4DPQ9 347-668).
T1 construct: PEX5, Trypanosoma cruzi, C-terminal tetratricopeptide repeat (TPR) domain, residues 347-668; codon-optimised synthetic gene in the petHSU vector; The His-SUMO tag was cleaved on the column with dtUD1 protease; also called TcPEX5; TcPEX5 (TPR domain); source: E. coli BL21 (DE3), purified (HiTrap IMAC, on-column tag cleavage, SEC S75); not shown: His6, N-terminal, cleaved
T1 sequence (looked up): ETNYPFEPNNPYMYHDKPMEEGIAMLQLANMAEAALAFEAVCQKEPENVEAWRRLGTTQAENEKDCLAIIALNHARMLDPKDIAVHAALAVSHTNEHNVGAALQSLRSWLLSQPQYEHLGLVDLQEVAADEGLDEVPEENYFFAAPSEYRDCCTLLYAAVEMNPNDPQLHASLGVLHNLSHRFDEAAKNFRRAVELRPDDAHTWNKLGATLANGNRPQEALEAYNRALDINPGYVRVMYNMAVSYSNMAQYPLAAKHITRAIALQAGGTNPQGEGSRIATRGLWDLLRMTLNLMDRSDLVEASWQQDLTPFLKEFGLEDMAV
Briefly: fluorescence polarisation; competitive: increasing unlabeled PTS1 added to 30 nM TcPEX5 (f0 = 0.8) and 10 nM 6-FAM-PTS1; Ki by curve fitting. The conditions noted are these: both partners purified.

For experiment [2], the target named is T1, TPR domain of T. cruzi PEX5 (347–668). Briefly: fluorescence polarisation; saturation binding: 10 nM 6-FAM-PTS1 titrated with TcPEX5 (0.1–250 nM); 10 mM Hepes pH 7.5, 100 mM NaCl, 5% DMSO; one-site fit. The note with it: both partners purified. Background: In fluorescence polarisation assays a small probe gives low polarisation when free and higher when bound to something large.

Where no end group is shown, it is not given here. The star is where a group is joined. 6FAM = O=C1OC2(c3ccc(O)cc3Oc3cc(O)ccc32)c2cc(C(=O)*)ccc21

B1: unlabeled PTS1 peptide (peptide)
peptide: YQSKL
notes: pentapeptide representing PTS1, without the label; also called PTS1 alone; unlabeled PTS peptide
B1 returned a Ki in experiment [1] of 126 nM.

B2: 6-FAM-labelled PTS1 (6-FAM-YQSKL) (peptide)
peptide: 6FAM-YQSKL
notes: pentapeptide representing peroxisomal targeting signal 1 (PTS1); also called 6-FAM-PTS1; FAM-PTS1
Take B2: in experiment [2], the Kd amounted to 21 nM.

Broadly, the Ki is the dissociation constant of the complex between target and ligand, obtained from inhibition or displacement. The low end stands for tighter binding, the high end for weaker binding. As a reminder, the Kd is a measure of binding affinity in units of concentration. Read a high Kd as lower affinity.
